Results published in patent US20090099029.

T1: Bovine, dephosphorylated, Myelin Basic Protein (MBP), P02687
T1 chain: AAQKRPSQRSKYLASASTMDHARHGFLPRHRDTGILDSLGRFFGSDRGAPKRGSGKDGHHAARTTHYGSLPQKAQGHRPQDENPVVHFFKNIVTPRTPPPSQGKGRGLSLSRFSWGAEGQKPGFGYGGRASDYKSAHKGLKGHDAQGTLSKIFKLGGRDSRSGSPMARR

B1: TEC (protein)
chain: MNFNTILEEILIKRSQQKKKTSPLNYKERLFVLTKSMLTYYEGRAEKKYRKGFIDVSKIKCVEIVKNDDGVIPCQNKYPFQVVHDANTLYIFAPSPQSRDLWVKKLKEEIKNNNNIMIKYHPKFWTDGSYQCCRQTEKLAPGCEKYNLFESSIRKALPPAPETKKRRPPPPIPLEEEDNSEEIVVAMYDFQAAEGHDLRLERGQEYLILEKNDVHWWRARDKYGNEGYIPSNYVTGKKSNNLDQYEWYCRNMNRSKAEQLLRSEDKEGGFMVRDSSQPGLYTVSLYTKFGGEGSSGFRHYHIKETTTSPKKYYLAEKHAFGSIPEIIEYHKHNAAGLVTRLRYPVSVKGKNAPTTAGFSYEKWEINPSELTFMRELGSGLFGVVRLGKWRAQYKVAIKAIREGAMCEEDFIEEAKVMMKLTHPKLVQLYGVCTQQKPIYIVTEFMERGCLLNFLRQRQGHFSRDVLLSMCQDVCEGMEYLERNSFIHRDLAARNCLVSEAGVVKVSDFGMARYVLDDQYTSSSGAKFPVKWCPPEVFNYSRFSSKSDVWSFGVLMWEVFTEGRMPFEKYTNYEVVTMVTRGHRLYQPKLASNYVYEVMLRCWQEKPEGRPSFEDLLRTIDELVECEETFGR
B2: CHEK1 (protein)
chain: MAVPFVEDWDLVQTLGEGAYGEVQLAVNRVTEEAVAVKIVDMKRAVDCPENIKKEICINKMLNHENVVKFYGHRREGNIQYLFLEYCSGGELFDRIEPDIGMPEPDAQRFFHQLMAGVVYLHGIGITHRDIKPENLLLDERDNLKISDFGLATVFRYNNRERLLNKMCGTLPYVAPELLKRREFHAEPVDVWSCGIVLTAMLAGELPWDQPSDSCQEYSDWKEKKTYLNPWKKIDSAPLALLHKILVENPSARITIPDIKKDRWYNKPLKKGAKRPRVTSGGVSESPSGFSKHIQSNLDFSPVNSASSEENVKYSSSQPEPRTGLSLWDTSPSYIDKLVQGISFSQPTCPDHMLLNSQLLGTPGSSQNPWQRLVKRMTRFFTKLDADKSYQCLKETCEKLGYQWKKSCMNQVTISTTDRRNNKLIFKVNLLEMDDKILVDFRLSKGDGLEFKRHFLKIKGKLIDIVSSQKIWLPAT
B3: AKT2 (protein)
chain: MNEVSVIKEGWLHKRGEYIKTWRPRYFLLKSDGSFIGYKERPEAPDQTLPPLNNFSVAECQLMKTERPRPNTFVIRCLQWTTVIERTFHVDSPDEREEWMRAIQMVANSLKQRAPGEDPMDYKCGSPSDSSTTEEMEVAVSKARAKVTMNDFDYLKLLGKGTFGKVILVREKATGRYYAMKILRKEVIIAKDEVAHTVTESRVLQNTRHPFLTALKYAFQTHDRLCFVMEYANGGELFFHLSRERVFTEERARFYGAEIVSALEYLHSRDVVYRDIKLENLMLDKDGHIKITDFGLCKEGISDGATMKTFCGTPEYLAPEVLEDNDYGRAVDWWGLGVVMYEMMCGRLPFYNQDHERLFELILMEEIRFPRTLSPEAKSLLAGLLKKDPKQRLGGGPSDAKEVMEHRFFLSINWQDVVQKKLLPPFKPQVTSEVDTRYFDDEFTAQSITITPPDRYDSLGLLELDQRTHFPQFSYSASIRE
B4: EPHA1 (protein)
chain: RSRRAQRQRQQRQRDRATDVDREDKLWLKPYVDLQAYEDPAQGALDFTRELDPAWLMVDTVIGEGEFGEVYRGTLRLPSQDCKTVAIKTLKDTSPGGQWWNFLREATIMGQFSHPHILHLEGVVTKRKPIMIITEFMENGALDAFLREREDQLVPGQLVAMLQGIASGMNYLSNHNYVHRDLAARNILVNQNLCCKVSDFGLTRLLDDFDGTYETQGGKIPIRWTAPEAIAHRIFTTASDVWSFGIVMWEVLSFGDKPYGEMSNQEVMKSIEDGYRLPPPVDCPAPLYELMKNCWAYDRARRPHFQKLQAHLEQLLANPHSLRTIANFDPRMTLRLPSLSGSDGIPYRTVSEWLESIRMKRYILHFHSAGLDTMECVLELTAEDLTQMGITLPGHQKRILCSIQGFKD
B5: AKT3 (protein)
chain: MSDVTIVKEGWVQKRGEYIKNWRPRYFLLKTDGSFIGYKEKPQDVDLPYPLNNFSVAKCQLMKTERPKPNTFIIRCLQWTTVIERTFHVDTPEEREEWTEAIQAVADRLQRQEEERMNCSPTSQIDNIGEEEMDASTTHHKRKTMNDFDYLKLLGKGTFGKVILVREKASGKYYAMKILKKEVIIAKDEVAHTLTESRVLKNTRHPFLTSLKYSFQTKDRLCFVMEYVNGGELFFHLSRERVFSEDRTRFYGAEIVSALDYLHSGKIVYRDLKLENLMLDKDGHIKITDFGLCKEGITDAATMKTFCGTPEYLAPEVLEDNDYGRAVDWWGLGVVMYEMMCGRLPFYNQDHEKLFELILMEDIKFPRTLSSDAKSLLSGLLIKDPNKRLGGGPDDAKEIMRHSFFSGVNWQDVYDKKLVPPFKPQVTSETDTRYFDEEFTAQTITITPPEKYDEDGMDCMDNERRPHFPQFSYSASGRE
B6: PTK2(FAK) (protein)
chain: MAAAYLDPNLNHTPNSSTKTHLGTGMERSPGAMERVLKVFHYFESNSEPTTWASIIRHGDATDVRGIIQKIVDSHKVKHVACYGFRLSHLRSEEVHWLHVDMGVSSVREKYELAHPPEEWKYELRIRYLPKGFLNQFTEDKPTLNFFYQQVKSDYMLEIADQVDQEIALKLGCLEIRRSYWEMRGNALEKKSNYEVLEKDVGLKRFFPKSLLDSVKAKTLRKLIQQTFRQFANLNREESILKFFEILSPVYRFDKECFKCALGSSWIISVELAIGPEEGISYLTDKGCNPTHLADFTQVQTIQYSNSEDKDRKGMLQLKIAGAPEPLTVTAPSLTIAENMADLIDGYCRLVNGTSQSFIIRPQKEGERALPSIPKLANSEKQGMRTHAVSVSETDDYAEIIDEEDTYTMPSTRDYEIQRERIELGRCIGEGQFGDVHQGIYMSPENPALAVAIKTCKNCTSDSVREKFLQEALTMRQFDHPHIVKLIGVITENPVWIIMELCTLGELRSFLQVRKYSLDLASLILYAYQLSTALAYLESKRFVHRDIAARNVLVSSNDCVKLGDFGLSRYMEDSTYYKASKGKLPIKWMAPESINFRRFTSASDVWMFGVCMWEILMHGVKPFQGVKNNDVIGRIENGERLPMPPNCPPTLYSLMTKCWAYDPSRRPRFTELKAQLSTILEEEKAQQEERMRMESRRQATVSWDSGGSDEAPPKPSRPGYPSPRSSEGFYPSPQHMVQTNHYQVSGYPGSHGITAMAGSIYPGQASLLDQTDSWNHRPQEIAMWQPNVEDSTVLDLRGIGQVLPTHLMEERLIRQQQEMEEDQRWLEKEERFLKPDVRLSRGSIDREDGSLQGPIGNQHIYQPVGKPDPAAPPKKPPRPGAPGHLGSLASLSSPADSYNEGVKLQPQEISPPPTANLDRSNDKVYENVTGLVKAVIEMSSKIQPAPPEEYVPMVKEVGLALRTLLATVDETIPLLPASTHREIEMAQKLLNSDLGELINKMKLAQQYVMTSLQQEYKKQMLTAAHALAVDAKNLLDVIDQARLKMLGQTRPH
B7: EPHA2 (protein)
chain: HRRRKNQRARQSPEDVYFSKSEQLKPLKTYVDPHTYEDPNQAVLKFTTEIHPSCVTRQKVIGAGEFGEVYKGMLKTSSGKKEVPVAIKTLKAGYTEKQRVDFLGEAGIMGQFSHHNIIRLEGVISKYKPMMIITEYMENGALDKFLREKDGEFSVLQLVGMLRGIAAGMKYLANMNYVHRDLAARNILVNSNLVCKVSDFGLSRVLEDDPEATYTTSGGKIPIRWTAPEAISYRKFTSASDVWSFGIVMWEVMTYGERPYWELSNHEVMKAINDGFRLPTPMDCPSAIYQLMMQCWQQERARRPKFADIVSILDKLIRAPDSLKTLADFDPRVSIRLPSTSGSEGVPFRTVSEWLESIKMQQYTEHFMAAGYTAIEKVVQMTNDDIKRIGVRLPGHQKRIAYSLLGLKDQVNTVGIPI
B8: STK6(AuroraA) (protein)
chain: MDRSKENCISGPVKATAPVGGPKRVLVTQQFPCQNPLPVNSGQAQRVLCPSNSSQRIPLQAQKLVSSHKPVQNQKQKQLQATSVPHPVSRPLNNTQKSKQPLPSAPENNPEEELASKQKNEESKKRQWALEDFEIGRPLGKGKFGNVYLAREKQSKFILALKVLFKAQLEKAGVEHQLRREVEIQSHLRHPNILRLYGYFHDATRVYLILEYAPLGTVYRELQKLSKFDEQRTATYITELANALSYCHSKRVIHRDIKPENLLLGSAGELKIADFGWSVHAPSSRRTTLCGTLDYLPPEMIEGRMHDEKVDLWSLGVLCYEFLVGKPPFEANTYQETYKRISRVEFTFPDFVTEGARDLISRLLKHNPSQRPMLREVLEHPWITANSSKPSNCQNKESASKQS
B9: ADRBK1(GRK2) (protein)
chain: MADLEAVLADVSYLMAMEKSKATPAARASKKILLPEPSIRSVMQKYLEDRGEVTFEKIFSQKLGYLLFRDFCLNHLEEARPLVEFYEEIKKYEKLETEEERVARSREIFDSYIMKELLACSHPFSKSATEHVQGHLGKKQVPPDLFQPYIEEICQNLRGDVFQKFIESDKFTRFCQWKNVELNIHLTMNDFSVHRIIGRGGFGEVYGCRKADTGKMYAMKCLDKKRIKMKQGETLALNERIMLSLVSTGDCPFIVCMSYAFHTPDKLSFILDLMNGGDLHYHLSQHGVFSEADMRFYAAEIILGLEHMHNRFVVYRDLKPANILLDEHGHVRISDLGLACDFSKKKPHASVGTHGYMAPEVLQKGVAYDSSADWFSLGCMLFKLLRGHSPFRQHKTKDKHEIDRMTLTMAVELPDSFSPELRSLLEGLLQRDVNRRLGCLGRGAQEVKESPFFRSLDWQMVFLQKYPPPLIPPRGEVNAADAFDIGSFDEEDTKGIKLLDSDQELYRNFPLTISERWQQEVAETVFDTINAETDRLEARKKAKNKQLGHEEDYALGKDCIMHGYMSKMGNPFLTQWQRRYFYLFPNRLEWRGEGEAPQSLLTMEEIQSVEETQIKERKCLLLKIRGGKQFILQCDSDPELVQWKKELRDAYREAQQLVQRVPKMKNKPRSPVVELSKVPLVQRGSANGL
B10: ZAP70 (protein)
chain: MPDPAAHLPFFYGSISRAEAEEHLKLAGMADGLFLLRQCLRSLGGYVLSLVHDVRFHHFPIERQLNGTYAIAGGKAHCGPAELCEFYSRDPDGLPCNLRKPCNRPSGLEPQPGVFDCLRDAMVRDYVRQTWKLEGEALEQAIISQAPQVEKLIATTAHERMPWYHSSLTREEAERKLYSGAQTDGKFLLRPRKEQGTYALSLIYGKTVYHYLISQDKAGKYCIPEGTKFDTLWQLVEYLKLKADGLIYCLKEACPNSSASNASGAAAPTLPAHPSTLTHPQRRIDTLNSDGYTPEPARITSPDKPRPMPMDTSVYESPYSDPEELKDKKLFLKRDNLLIADIELGCGNFGSVRQGVYRMRKKQIDVAIKVLKQGTEKADTEEMMREAQIMHQLDNPYIVRLIGVCQAEALMLVMEMAGGGPLHKFLVGKREEIPVSNVAELLHQVSMGMKYLEEKNFVHRDLAARNVLLVNRHYAKISDFGLSKALGADDSYYTARSAGKWPLKWYAPECINFRKFSSRSDVWSYGVTMWEALSYGQKPYKKMKGPEVMAFIEQGKRMECPPECPPELYALMSDCWIYKWEDRPDFLTVEQRMRACYYSLASKVEGPPGSTQKAEAACA

Molecular target: T1, Bovine, dephosphorylated, Myelin Basic …

| Protein | MBP Kinase Activity |
| --- | --- |
| B1 | Negative |
| B2 | Strong |
| B3 | Strong |
| B4 | Strong |
| B5 | Strong |
| B6 | Negative |
| B7 | Weak |
| B8 | Weak |
| B9 | Negative |
| B10 | Negative |
